Experimental data reported in patent publication US20110008345A1 (GlaxoSmithKline, published 2011).
Read-outs that look alike come from different tables or passages of the source.

Key:
[1] = target: T1, recombinant E. coli-expressed cynomolgus IL-13 (cynomolgus, UniProt Q0PW92 21-132); test: cell-based or functional assay
[2] = target: T2, recombinant E. coli-expressed cynomolgus IL-4 (cynomolgus, UniProt P79339 25-153); test: cell-based or functional assay
T2 sequence (looked up): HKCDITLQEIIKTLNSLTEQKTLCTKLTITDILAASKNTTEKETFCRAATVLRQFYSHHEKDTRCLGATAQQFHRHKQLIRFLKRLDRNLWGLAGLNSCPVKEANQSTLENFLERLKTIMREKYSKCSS

[3] = target: T3, recombinant E. coli-expressed human IL-13 (human, UniProt P35225 35-146); test: cell-based or functional assay
[4] = target: T4, recombinant E. coli-expressed human IL-4 (human, UniProt P05112 25-153); test: cell-based or functional assay
T4 sequence: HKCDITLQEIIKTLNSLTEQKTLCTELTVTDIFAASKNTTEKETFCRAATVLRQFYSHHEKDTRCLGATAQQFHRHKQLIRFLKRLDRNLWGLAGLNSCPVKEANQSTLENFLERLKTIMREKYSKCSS

[5] = target: T3, recombinant E. coli-expressed human …; test: SPR exp 2
[6] = target: T4, recombinant E. coli-expressed human IL-4; test: SPR exp 2
[7] = target: T3, recombinant E. coli-expressed human …; test: SPR exp 1
[8] = target: T1, recombinant E. coli-expressed …; test: SPR
[9] = target: T2, recombinant E. coli-expressed …; test: SPR
[10] = target: T3, recombinant E. coli-expressed human …; test: ELISA, IL-13 binding to IL13Ralpha2/Fc
[11] = target: T4, recombinant E. coli-expressed human IL-4; test: ELISA, IL-4 binding to IL4Ralpha-Fc
[12] = target: T3, recombinant E. coli-expressed human …; test: SPR, human IL-4 bound first
[13] = target: T3, recombinant E. coli-expressed human …; test: cell-based or functional assay; remark: listed apart in the source
[14] = target: T4, recombinant E. coli-expressed human IL-4; test: cell-based or functional assay; remark: listed apart in the source
[15] = target: T3, recombinant E. coli-expressed human …; test: SPR, no IL-4 bound
[16] = target: T3, recombinant E. coli-expressed human …; test: SPR
[17] = target: T1, recombinant E. coli-expressed …; test: cell-based or functional assay; remark: listed apart in the source
[18] = target: T3, recombinant E. coli-expressed human …; test: cell-based or functional assay; remark: listed apart in the source
[19] = target: T1, recombinant E. coli-expressed …; test: SPR; remark: listed apart in the source
[20] = target: T3, recombinant E. coli-expressed human …; test: SPR exp 2; remark: listed apart in the source
[21] = target: T3, recombinant E. coli-expressed human …; test: SPR exp 1; remark: listed apart in the source
[22] = target: T4, recombinant E. coli-expressed human IL-4; test: SPR exp 1
[23] = target: T5, Recombinant Human HGF R (c-MET)/Fc Chimera (human, UniProt P08581 25-932); test: ELISA
T5 construct: bought; also called HGF receptor

recombinant human VEGF = target: T6, recombinant human VEGF (human, UniProt P15692-4 27-191); test: ELISA
T6 construct: also called VEGF165; hVEGF165

[24] = target: T3, recombinant E. coli-expressed human …; test: ELISA, supernatant
[25] = target: T4, recombinant E. coli-expressed human IL-4; test: ELISA, supernatant
recombinant human HER2 = target: T7, recombinant human HER2 (human, UniProt P04626 23-652, limits assumed); test: ELISA
T7 construct: bought

VEGF R2 (VEGF receptor) = target: T8, VEGF R2 (VEGF receptor) (human, UniProt P35968 20-764); test: ELISA
T8 construct: bought; construct not described
T8 sequence (P35968 20-764 limits assumed): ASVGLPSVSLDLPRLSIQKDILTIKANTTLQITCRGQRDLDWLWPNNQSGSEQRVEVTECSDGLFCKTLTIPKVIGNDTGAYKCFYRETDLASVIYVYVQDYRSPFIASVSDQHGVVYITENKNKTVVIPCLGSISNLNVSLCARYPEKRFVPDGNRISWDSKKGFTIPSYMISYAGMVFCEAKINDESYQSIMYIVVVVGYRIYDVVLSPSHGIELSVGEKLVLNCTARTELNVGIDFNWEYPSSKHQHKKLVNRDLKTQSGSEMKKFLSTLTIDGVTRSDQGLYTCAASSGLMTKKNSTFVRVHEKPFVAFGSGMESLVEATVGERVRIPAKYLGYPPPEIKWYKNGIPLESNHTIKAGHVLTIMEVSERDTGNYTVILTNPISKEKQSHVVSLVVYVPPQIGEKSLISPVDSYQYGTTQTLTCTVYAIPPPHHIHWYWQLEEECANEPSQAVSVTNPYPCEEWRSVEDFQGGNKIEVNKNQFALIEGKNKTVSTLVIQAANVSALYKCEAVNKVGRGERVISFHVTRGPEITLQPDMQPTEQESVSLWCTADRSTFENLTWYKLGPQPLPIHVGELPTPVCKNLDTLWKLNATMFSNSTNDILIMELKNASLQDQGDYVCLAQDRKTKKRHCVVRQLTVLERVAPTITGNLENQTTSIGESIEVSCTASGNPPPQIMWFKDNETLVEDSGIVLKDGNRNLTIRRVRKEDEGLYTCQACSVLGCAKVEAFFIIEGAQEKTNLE

T5 sequence (P08581 25-932 limits assumed, change not shown): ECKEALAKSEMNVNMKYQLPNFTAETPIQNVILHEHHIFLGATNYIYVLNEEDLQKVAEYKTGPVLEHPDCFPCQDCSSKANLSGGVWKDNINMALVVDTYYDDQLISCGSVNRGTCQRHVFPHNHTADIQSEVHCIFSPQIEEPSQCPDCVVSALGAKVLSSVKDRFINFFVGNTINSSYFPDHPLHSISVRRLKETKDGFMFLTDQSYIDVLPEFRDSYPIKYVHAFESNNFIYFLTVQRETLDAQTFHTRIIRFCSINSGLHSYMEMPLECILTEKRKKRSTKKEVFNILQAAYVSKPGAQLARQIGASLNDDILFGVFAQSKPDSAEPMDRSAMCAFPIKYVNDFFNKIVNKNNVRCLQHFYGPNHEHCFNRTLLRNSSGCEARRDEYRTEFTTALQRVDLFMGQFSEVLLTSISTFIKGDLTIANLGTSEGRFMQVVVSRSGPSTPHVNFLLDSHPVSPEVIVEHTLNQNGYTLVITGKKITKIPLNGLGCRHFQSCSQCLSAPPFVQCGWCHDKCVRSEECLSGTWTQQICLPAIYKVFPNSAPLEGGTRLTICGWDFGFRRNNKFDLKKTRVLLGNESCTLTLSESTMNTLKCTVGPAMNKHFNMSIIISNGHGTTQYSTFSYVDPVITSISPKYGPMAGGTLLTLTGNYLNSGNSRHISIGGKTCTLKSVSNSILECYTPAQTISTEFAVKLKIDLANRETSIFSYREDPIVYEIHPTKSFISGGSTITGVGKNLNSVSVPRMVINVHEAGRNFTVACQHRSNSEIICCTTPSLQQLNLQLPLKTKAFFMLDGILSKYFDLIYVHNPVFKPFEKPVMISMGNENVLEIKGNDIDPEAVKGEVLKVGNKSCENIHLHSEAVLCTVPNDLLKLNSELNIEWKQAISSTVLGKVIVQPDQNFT

B1: PascoH-TVAAPS-474 GS removed (bispecific antibody, human IgG1, kappa)
heavy: not shown
light: DIVLTQSPSSLSASVGDRVTITCKASQSVDYDGDSYMNWYQQKPGKAPKLLIYAASNLESGIPSRFSGSGSGTDFTFTISSLQPEDIATYYCQQSNEDPPTFGQGTKVEIKRTVAAPSVFIFPPSDEQLKSGTASVVCLLNNFYPREAKVQWKVDNALQSGNSQESVTEQDSKDSTYSLSSTLTLSKADYEKHKVYACEVTHQGLSSPVTKSFNRGEC
Mean ND50 (TF-1) [1]: 47.9 nM | Mean ND50 (TF-1) [2]: 1.36 nM | Mean ND50 (TF-1) [3]: 2.11 nM | Mean ND50 (TF-1) [4]: 3.02 nM | Kd [5]: 0.305 nM | Kd [6]: 11 pM | Kd [7]: 0.268 nM | Kd [8]: 26.7 nM | koff [8]: 0.0129 s⁻¹ | kon [8]: 483000 M⁻¹ s⁻¹ | Kd [9]: 0.029 nM | koff [9]: 5.3e-05 s⁻¹ | kon [9]: 1.83e+06 M⁻¹ s⁻¹ | IC50 [10]: 7.41 nM

B2: PascoH-474 GS removed (bispecific antibody, human IgG1, kappa)
heavy: not shown
light: DIVLTQSPSSLSASVGDRVTITCKASQSVDYDGDSYMNWYQQKPGKAPKLLIYAASNLESGIPSRFSGSGSGTDFTFTISSLQPEDIATYYCQQSNEDPPTFGQGTKVEIKRTVAAPSVFIFPPSDEQLKSGTASVVCLLNNFYPREAKVQWKVDNALQSGNSQESVTEQDSKDSTYSLSSTLTLSKADYEKHKVYACEVTHQGLSSPVTKSFNRGEC
Mean ND50 (TF-1) [1]: 39.8 nM | Mean ND50 (TF-1) [2]: 1.89 nM | Mean ND50 (TF-1) [3]: 2.27 nM | Mean ND50 (TF-1) [4]: 2.85 nM | IC50 [11]: 5.14 nM | Kd [5]: 0.351 nM | Kd [6]: 5 pM | Kd [12]: 0.408 nM | koff [12]: 0.000231 s⁻¹ | kon [12]: 566000 M⁻¹ s⁻¹ | Kd [7]: 0.331 nM | Kd [8]: 16.6 nM | koff [8]: 0.011 s⁻¹ | kon [8]: 662000 M⁻¹ s⁻¹ | Kd [9]: 0.0342 nM | koff [9]: 6.38e-05 s⁻¹ | kon [9]: 1.87e+06 M⁻¹ s⁻¹ | Mean IC50 (whole blood phospho-STAT6) [13]: 2.78 nM | Mean IC50 (whole blood phospho-STAT6) [14]: 7.95 nM | Kd [15]: 0.425 nM | koff [15]: 0.000259 s⁻¹ | kon [15]: 609000 M⁻¹ s⁻¹ | IC50 [10]: 9.58 nM | Kd [16]: 0.423 nM | koff [16]: 0.000266 s⁻¹ | kon [16]: 629000 M⁻¹ s⁻¹

B3: PascoH-616 (bispecific antibody, human IgG1, kappa)
heavy: not shown
light: DIVLTQSPSSLSASVGDRVTITCKASQSVDYDGDSYMNWYQQKPGKAPKLLIYAASNLESGIPSRFSGSGSGTDFTFTISSLQPEDIATYYCQQSNEDPPTFGQGTKVEIKRTVAAPSVFIFPPSDEQLKSGTASVVCLLNNFYPREAKVQWKVDNALQSGNSQESVTEQDSKDSTYSLSSTLTLSKADYEKHKVYACEVTHQGLSSPVTKSFNRGEC
Mean ND50 (TF-1) [17]: 9.23 nM | Mean ND50 (TF-1) [18]: 0.796 nM | Kd [19]: 5.4 nM | koff [19]: 0.00184 s⁻¹ | kon [19]: 341000 M⁻¹ s⁻¹ | Kd [20]: 0.15 nM | IC50 [10]: 6.41 nM | Kd [21]: 0.114 nM | Kd [22]: 1.72 pM

B4: BPC1019 (antibody, human IgG1, kappa)
heavy: not shown
chain: not shown
light: DIQMTQSPSSLSASVGDRVTITCKSSQSLLYTSSQKNYLAWYQQKPGKAPKLLIYWASTRESGVPSRFSGSGSGTDFTLTISSLQPEDFATYYCQQYYAYPWTFGQGTKVEIKRTVAAPSVFIFPPSDEQLKSGTASVVCLLNNFYPREAKVQWKVDNALQSGNSQESVTEQDSKDSTYSLSSTLTLSKADYEKHKVYACEVTHQGLSSPVTKSFNRGEC
notes: monovalent antibody; also called anti cMET 5D5v2 knob-into-hole
binding result [23]: binds | binding result (recombinant human VEGF): no binding

B5: BPC1020 (antibody, V domains shown)
VH: EVQLVESGGGLVQPGGSLRLSCAASGYTFTSYWLHWVRQAPGKGLEWVGMIDPSNSDTRFNPNFKDRFTISADTSKNTAYLQMNSLRAEDTAVYYCATYRSYVTPLDYWGQGTLVTVSS
VL: DIQMTQSPSSLSASVGDRVTITCKSSQSLLYTSSQKNYLAWYQQKPGKAPKLLIYWASTRESGVPSRFSGSGSGTDFTLTISSLQPEDFATYYCQQYYAYPWTFGQGTKVEIKR
binding result [23]: binds | binding result (recombinant human VEGF): no binding

B6: BPC1617 (bispecific antibody, human IgG2, kappa)
heavy: QVTLRESGPALVKPTQTLTLTCTFSGFSLSTSGMGVSWIRQPPGKGLEWLAHIYWDDDKRYNPSLKSRLTISKDTSRNQVVLTMTNMDPVDTATYYCARRETVFYWYFDVWGRGTLVTVSSASTKGPSVFPLAPCSRSTSESTAALGCLVKDYFPEPVTVSWNSGALTSGVHTFPAVLQSSGLYSLSSVVTVPSSNFGTQTYTCNVDHKPSNTKVDKTVERKCCVECPPCPAPPVAGPSVFLFPPKPKDTLMISRTPEVTCVVVDVSHEDPEVQFNWYVDGVEVHNAKTKPREEQFNSTFRVVSVLTVVHQDWLNGKEYKCKVSNKGLPAPIEKTISKTKGQPREPQVYTLPPSREEMTKNQVSLTCLVKGFYPSDIAVEWESNGQPENNYKTTPPMLDSDGSFFLYSKLTVDKSRWQQGNVFSCSVMHEALHNHYTQKSLSLSPGKGSGVQLLESGGGLVQPGGSLRLSCAASGFTFAWYDMGWVRQAPGKGLEWVSSIDWHGEVTYYADSVKGRFTISRDNSKNTLYLQMNSLRAEDTAVYYCATAEDEPGYDYWGQGTLVTVSS
light: DIVLTQSPSSLSASVGDRVTITCKASQSVDYDGDSYMNWYQQKPGKAPKLLIYAASNLESGIPSRFSGSGSGTDFTFTISSLQPEDIATYYCQQSNEDPPTFGQGTKVEIKRTVAAPSVFIFPPSDEQLKSGTASVVCLLNNFYPREAKVQWKVDNALQSGNSQESVTEQDSKDSTYSLSSTLTLSKADYEKHKVYACEVTHQGLSSPVTKSFNRGEC
binding result [24]: binds | binding result [25]: binds

B7: BPC1618 (bispecific antibody, human IgG4, kappa)
heavy: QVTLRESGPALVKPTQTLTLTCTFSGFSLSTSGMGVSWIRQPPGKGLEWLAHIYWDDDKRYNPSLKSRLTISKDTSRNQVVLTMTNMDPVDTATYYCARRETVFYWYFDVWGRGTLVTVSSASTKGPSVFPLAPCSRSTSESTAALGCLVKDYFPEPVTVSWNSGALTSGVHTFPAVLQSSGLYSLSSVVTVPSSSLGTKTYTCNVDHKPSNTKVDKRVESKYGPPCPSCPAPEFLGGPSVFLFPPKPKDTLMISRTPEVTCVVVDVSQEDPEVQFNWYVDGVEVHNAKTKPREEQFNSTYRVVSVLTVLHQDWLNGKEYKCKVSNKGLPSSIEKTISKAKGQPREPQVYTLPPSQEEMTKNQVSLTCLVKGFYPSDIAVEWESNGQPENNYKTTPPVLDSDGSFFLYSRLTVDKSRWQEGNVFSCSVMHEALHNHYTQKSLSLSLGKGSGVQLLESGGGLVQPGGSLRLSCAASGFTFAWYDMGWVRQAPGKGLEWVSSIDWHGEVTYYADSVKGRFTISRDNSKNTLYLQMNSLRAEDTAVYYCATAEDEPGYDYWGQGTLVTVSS
light: DIVLTQSPSSLSASVGDRVTITCKASQSVDYDGDSYMNWYQQKPGKAPKLLIYAASNLESGIPSRFSGSGSGTDFTFTISSLQPEDIATYYCQQSNEDPPTFGQGTKVEIKRTVAAPSVFIFPPSDEQLKSGTASVVCLLNNFYPREAKVQWKVDNALQSGNSQESVTEQDSKDSTYSLSSTLTLSKADYEKHKVYACEVTHQGLSSPVTKSFNRGEC
binding result [24]: binds | binding result [25]: binds

B8: BPC1619 (bispecific antibody, human IgG4 S228P, kappa)
heavy: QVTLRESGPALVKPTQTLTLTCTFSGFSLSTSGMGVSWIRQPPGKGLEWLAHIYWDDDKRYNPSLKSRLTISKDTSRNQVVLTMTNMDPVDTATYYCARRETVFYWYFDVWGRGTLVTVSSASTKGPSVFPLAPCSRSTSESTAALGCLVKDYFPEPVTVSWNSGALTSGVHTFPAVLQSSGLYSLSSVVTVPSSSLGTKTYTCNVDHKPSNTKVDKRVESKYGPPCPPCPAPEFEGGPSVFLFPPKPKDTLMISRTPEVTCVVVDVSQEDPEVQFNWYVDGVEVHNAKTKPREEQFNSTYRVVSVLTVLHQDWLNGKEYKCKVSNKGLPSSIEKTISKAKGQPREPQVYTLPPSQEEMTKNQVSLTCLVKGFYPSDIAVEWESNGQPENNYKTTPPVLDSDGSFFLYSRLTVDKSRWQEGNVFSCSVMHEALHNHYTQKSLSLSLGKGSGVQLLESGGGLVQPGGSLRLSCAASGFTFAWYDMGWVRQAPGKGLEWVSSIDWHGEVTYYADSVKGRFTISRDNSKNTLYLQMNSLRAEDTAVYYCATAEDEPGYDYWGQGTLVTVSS
light: DIVLTQSPSSLSASVGDRVTITCKASQSVDYDGDSYMNWYQQKPGKAPKLLIYAASNLESGIPSRFSGSGSGTDFTFTISSLQPEDIATYYCQQSNEDPPTFGQGTKVEIKRTVAAPSVFIFPPSDEQLKSGTASVVCLLNNFYPREAKVQWKVDNALQSGNSQESVTEQDSKDSTYSLSSTLTLSKADYEKHKVYACEVTHQGLSSPVTKSFNRGEC
binding result [24]: binds | binding result [25]: binds

B9: anti-IGF-1R antibody H0L0 (antibody, human IgG1, kappa, V domains shown)
VH: QVQLVQSGAEVKKPGASVKVSCKASGYTFTDYYMNWVRQAPGQGLEWMGNINPNNGGTNYNQKFKDRVTMTTDTSTSTAYMELRSLRSDDTAVYYCARWILYYGRSKWYFDVWGRGTLVTVSS
VL: DIVMTQSPLSLPVTPGEPASISCRSSQSIVQSNGDTYLEWYLQKPGQSPQLLIYRVSNRFSGVPDRFSGSGSGTDFTLKISRVEAEDVGVYYCFQGSHVPYTFGQGTKLEIKR
notes: also called HOLO
binding result (recombinant human HER2): no binding | binding result (VEGF R2 (VEGF receptor)): no binding | binding result (recombinant human VEGF): no binding
